Laboratory results published in patent US20090162945.

Tests used:
[1] = molecular target: Synthetic 43-mer histone H3 (1-40) peptide tri-methylated at lysine 27, …-Tyr-Cys-(Ttds)-Lys-biotin
[2] = molecular target: Synthetic 43-mer histone H3 (1-40) peptide tri-methylated at lysine 9, …(me3)…-Tyr-Cys-(Ttds)-Lys-biotin
Sequence of Synthetic 43-mer histone H3 (1-40) peptide tri-methylated at lysine 9, …(me3)…-Tyr-Cys-(Ttds)-Lys-biotin (chain, as listed by the source): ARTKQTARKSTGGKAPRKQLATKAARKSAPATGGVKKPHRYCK

Sequence of Synthetic 43-mer histone H3 (1-40) peptide tri-methylated at lysine 27, …-Tyr-Cys-(Ttds)-Lys-biotin (chain, as listed by the source): as above

B1: Recombinant full-length amino-terminally hexahistidine-tagged human GASC1 (protein)
chain: MEVAEVESPLNPSCKIMTFRPSMEEFREFNKYLAYMESKGAHRAGLAKVIPPKEWKPRQCYDDIDNLLIPAPIQQMVTGQSGLFTQYNIQKKAMTVKEFRQLANSGKYCTPRYLDYEDLERKYWKNLTFVAPIYGADINGSIYDEGVDEWNIARINTVLDVVEEECGISIEGVNTPYLYFGMWKTTFAWHTEDMDLYSINYLHFGEPKSWYAIPPEHGKRLERLAQGFFPSSSQGCDAFLRHKMTLISPSVLKKYGIPFDKITQEAGEFMITFPYGYHAGFNHGFNCAESTNFATVRWIDYGKVAKLCTCRKDMVKISMDIFVRKFQPDRYQLWKQGKDIYTIDHTKPTPASTPEVKAWLQRRRKVRKASRSFQCARSTSKRPKADEEEEVSDEVDGAEVPNPDSVTDDLKVSEKSEAAVKLRNTEASSEEESSASRMQVEQNLSDHIKLSGNSCLSTSVTEDIKTEDDKAYAYRSVPSISSEADDSIPLSTGYEKPEKSDPSELSWPKSPESCSSVAESNGVLTEGEESDVESHGNGLEPGEIPAVPSGERNSFKVPSIAEGENKTSKSWRHPLSRPPARSPMTLVKQQAPSDEELPEVLSIEEEVEETESWAKPLIHLWQTKSPNFAAEQEYNATVARMKPHCAICTLLMPYHKPDSSNEENDARWETKLDEVVTSEGKTKPLIPEMCFIYSEENIEYSPPNAFLEEDGTSLLISCAKCCVRVHASCYGIPSHEICDGWLCARCKRNAWTAECCLCNLRGGALKQTKNNRWAHVMCAVAVPEVRFTNVPERTQIDVGRIPLQRLKLKCIFCRHRVKRVSGACIQCSYGRCPASFHVTCAHAAGVLMEPDDWPYVVNITCFRHKVNPNVKSKACEKVISVGQTVITKHRNTRYYSCRVMAVTSQTFYEVMFDDGSFSRDTFPEDIVSRDCLKLGPPAEGEVVQVKWPDGKLYGAKYFGSNIAHMYQVEFEDGSQIAMKREDIYTLDEELPKRVKARFSTASDMRFEDTFYGADIIQGERKRQRVLSSRFKNEYVADPVYRTFLKSSFQKKCQKRQ
[1]
  demethylation assay, immunoblotting of the methylation mark: tri-methylated H3K27 and tri-methylated H4K20 appeared to be unaffected by GASC1 treatment
[2]
  demethylation of H3K9me3 peptide, mass spectrometry: the majority of H3K9me3 peptide (approximately 80%) was converted to di- and mono-methylated H3-K9 after incubation of with GASC1
  formaldehyde release (demethylation-FDH-coupled assay): recombinant His-tagged GASC1 released formaldehyde
  in vitro demethylation of synthetic peptide, western blotting: Following 30 minutes incubation of pure tri-methylated H3K9 with GASC1 almost all tri-methyl H3K9 was converted to di- and mono-methyl H3K9

B2: Recombinant full-length histidine-tagged human JMJD2a (protein)
chain: MASESETLNPSARIMTFYPTMEEFRNFSRYIAYIESQGAHRAGLAKVVPPKEWKPRASYDDIDDLVIPAPIQQLVTGQSGLFTQYNIQKKAMTVREFRKIANSDKYCTPRYSEFEELERKYWKNLTFNPPIYGADVNGTLYEKHVDEWNIGRLRTILDLVEKESGITIEGVNTPYLYFGMWKTSFAWHTEDMDLYSINYLHFGEPKSWYSVPPEHGKRLERLAKGFFPGSAQSCEAFLRHKMTLISPLMLKKYGIPFDKVTQEAGEFMITFPYGYHAGFNHGFNCAESTNFATRRWIEYGKQAVLCSCRKDMVKISMDVFVRKFQPERYKLWKAGKDNTVIDHTLPTPEAAEFLKESELPPRAGNEEECPEEDMEGVEDGEEGDLKTSLAKHRIGTKRHRVCLEIPQEVSQSELFPKEDLSSEQYEMTECPAALAPVRPTHSSVRQVEDGLTFPDYSDSTEVKFEELKNVKLEEEDEEEEQEAAALDLSVNPASVGGRLVFSGSKKKSSSSLGSGSSRDSISSDSETSEPLSCRAQGQTGVLTVHSYAKGDGRVTVGEPCTRKKGSAARSFSERELAEVADEYMFSLEENKKSKGRRQPLSKLPRHHPLVLQECVSDDETSEQLTPEEEAEETEAWAKPLSQLWQNRPPNFEAEKEFNETMAQQAPHCAVCMIFQTYHQVEFGGFNQNCGNASDLAPQKQRTKPLIPEMCFTSTGCSTDINLSTPYLEEDGTSILVSCKKCSVRVHASCYGVPPAKASEDWMCSRCSANALEEDCCLCSLRGGALQRANDDRWVHVSCAVAILEARFVNIAERSPVDVSKIPLPRFKLKCIFCKKRRKRTAGCCVQCSHGRCPTAFHVSCAQAAGVMMQPDDWPFVVFITCFRHKIPNLERAKGALQSITAGQKVISKHKNGRFYQCEVVRLTTETFYEVNFDDGSFSDNLYPEDIVSQDCLQFGPPAEGEVVQVRWTDGQVYGAKFVASHPIQMYQVEFEDGSQLVVKRDDVYTLDEELPKRVKSRLSVASDMRFNEIFTEKEVKQEKKRQRVINSRYREDYIEPALYRAIME
[2]
  demethylation of synthetic H3K9 peptides, western blotting: GASC1 and its homolog JMJD2A appeared to have a comparable ability to demethylate synthetic H3K9 substrates
